# Data: patent US20080219985A1
# Read-outs that look alike come from different tables or passages of the source.
# Columns and labels:
# Assay in all cases: cell-based or functional assay
# [1] = target: PROK2 receptor on Wky12-22 cells (rat aortic smooth muscle cells) (rat)
# [2] = target: GPCR73a receptor (human) (UniProt Q8TCW9)
# [3] = target: GPCR73b receptor (Homo sapiens (Human)) (UniProt Q8NFJ6)
# [4] = target: GPCR73b receptor (Homo sapiens (Human)) (UniProt Q8NFJ6); remark: listed apart in the source
# [5] = target: GPCR73a receptor (human) (UniProt Q8TCW9); remark: listed apart in the source
# GPCR73b receptor (Homo sapiens (Human)), sequence (Q8NFJ6 whole entry): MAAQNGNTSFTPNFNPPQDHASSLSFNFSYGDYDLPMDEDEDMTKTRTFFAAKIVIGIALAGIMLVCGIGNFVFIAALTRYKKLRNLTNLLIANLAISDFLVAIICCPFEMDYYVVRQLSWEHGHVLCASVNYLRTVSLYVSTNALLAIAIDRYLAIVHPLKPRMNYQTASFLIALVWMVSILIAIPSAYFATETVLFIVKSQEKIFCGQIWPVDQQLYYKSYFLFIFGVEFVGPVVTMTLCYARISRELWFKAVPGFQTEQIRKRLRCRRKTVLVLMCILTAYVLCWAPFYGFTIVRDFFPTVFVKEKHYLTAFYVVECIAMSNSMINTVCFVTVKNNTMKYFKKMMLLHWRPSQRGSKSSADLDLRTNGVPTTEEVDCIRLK
# GPCR73a receptor (human), sequence (Q8TCW9 whole entry): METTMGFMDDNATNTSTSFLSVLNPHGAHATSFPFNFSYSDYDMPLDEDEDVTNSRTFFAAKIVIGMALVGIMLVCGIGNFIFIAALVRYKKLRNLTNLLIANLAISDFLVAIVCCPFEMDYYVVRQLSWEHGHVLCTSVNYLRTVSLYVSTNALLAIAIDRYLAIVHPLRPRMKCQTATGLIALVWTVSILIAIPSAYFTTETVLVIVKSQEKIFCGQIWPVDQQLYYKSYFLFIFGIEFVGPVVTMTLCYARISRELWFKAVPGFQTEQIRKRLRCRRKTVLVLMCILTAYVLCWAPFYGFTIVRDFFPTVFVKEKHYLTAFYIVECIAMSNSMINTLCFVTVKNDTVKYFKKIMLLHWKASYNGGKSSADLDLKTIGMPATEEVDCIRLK
binder,measurement,setting,value
human PROK1 purchased from PeproTech (ligand) AVITGACERDVQCGAGTCCAISLWLRGLRMCTPLGREGEECHPGSHKVPFFRKRKHHTCPCLPNLLCSRFPDGRYRCSMDLKNINF,EC50 of GROα secretion from Wky12-22 cells,[1],2.94 ng/mL
same,SRE-luciferase fold-induction at 1 ng/ml (fold-induction),[2],1.2
same,SRE-luciferase fold-induction at 3.2 ng/ml (fold-induction),[2],1.6
same,SRE-luciferase fold-induction at 10 ng/ml (fold-induction),[2],2.5
same,SRE-luciferase fold-induction at 32 ng/ml (fold-induction),[2],5.8
same,SRE-luciferase fold-induction at 100 ng/ml (fold-induction),[2],11.4
same,SRE-luciferase fold-induction at 320 ng/ml (fold-induction),[2],24.4
same,SRE-luciferase fold-induction at 1000 ng/ml (fold-induction),[2],20
same,SRE-luciferase fold-induction at 1 ng/ml (fold-induction),[3],1.1
same,SRE-luciferase fold-induction at 3.2 ng/ml (fold-induction),[3],1.3
same,SRE-luciferase fold-induction at 10 ng/ml (fold-induction),[3],1.8
same,SRE-luciferase fold-induction at 32 ng/ml (fold-induction),[3],2.8
same,SRE-luciferase fold-induction at 100 ng/ml (fold-induction),[3],5.6
same,SRE-luciferase fold-induction at 320 ng/ml (fold-induction),[3],8.3
same,SRE-luciferase fold-induction at 1000 ng/ml (fold-induction),[3],8.4
same,SRE-luciferase fold-induction at 3.2 ng/ml (fold-induction),[4],1.4
same,SRE-luciferase fold-induction at 32 ng/ml (fold-induction),[4],2.7
same,SRE-luciferase fold-induction at 100 ng/ml (fold-induction),[4],4.1
same,SRE-luciferase fold-induction at 320 ng/ml (fold-induction),[4],5.8
same,SRE-luciferase fold-induction at 1000 ng/ml (fold-induction),[4],6.1
same,SRE-luciferase fold-induction at 1 ng/ml (fold-induction),[5],0.95
same,SRE-luciferase fold-induction at 3.2 ng/ml (fold-induction),[5],1.3
same,SRE-luciferase fold-induction at 10 ng/ml (fold-induction),[5],2.6
same,SRE-luciferase fold-induction at 32 ng/ml (fold-induction),[5],7.2
same,SRE-luciferase fold-induction at 320 ng/ml (fold-induction),[5],20.5
same,SRE-luciferase fold-induction at 1000 ng/ml (fold-induction),[5],15
